This is an account of results in US20150291681A1 (published 2015).

The target of experiment [1] is T1, EGFP labeled Notch (Drosophila Notch stably expressed on S2 cells) (Drosophila, UniProt P07207 53-2703).
T1 construct: whole, on cells; how EGFP is joined to Notch is not described; also called Notch+EGFP; N+EGFP; not shown: EGFP label
As to the kind of experiment: S2 cell aggregation; Sertom DNA transfected into Notch-EGFP cells (cis), competitor of Sertom cells (trans). The procedure:
Stable lines of EGFP-labeled Notch cells were added to stable lines of tomato tagged Ser-expressing cells, allowed to mix for 24 hours at room temperature and were assayed for the formation of interacting cellular aggregates (Fehon et al., 1990, Cell 3:523-534). The Notch expressing cells were transiently transfected with tomato-tagged Ser DNA at concentrations ranging between 0.0 μg and 2.0 μg prior to mixing with Ser expressing cells to induce cis-inhibition by co-expressed Ser with Notch. When performed with wild type Ser DNA (A of this figure), effective inhibition of aggregation occurs in a dose dependent manner when the Ser expressing cells (Ser labeled columns) are mixed with the transfected Notch cells. When Ser expressing cells are not mixed with the transfected Notch cells (S2R+), self-aggregate formation is minimal.
S2 cells stably expressing tomato-tagged Ser (Sertom) were mixed with S2 cells stably expressing EGFP labeled Notch and allowed to aggregate with one another to determine baseline levels of Notch-Ser interactions (FIG. 6). Subsequent experiments transiently transfected the stable Notch EGFP line with either Sertom (wild type), SerDel6tom or SerDel3tom transgenes at varying concentrations to promote cis-inhibition within the Notch-expressing cells. […]

Experiment [2] addresses T2, endogenous Drosophila Notch (wing imaginal disc) (Drosophila, UniProt P07207 53-2703).
T2 construct: whole, on cells; also called Notch receptor
The experiment is described as follows: summing-up sentence; inferred from trans-activation in wing discs and aggregation assays. The procedure: To define potential inhibitory domains in the extracellular domain of the Notch ligands, a systematic deletion analysis of an extracellular region of the Drosophila Notch ligand Ser was performed. Ser has 14 ELRs in its extracellular domain (FIG. 4) and has been the ligand best explored for its inhibitory properties (Klein et al., 1997, Dev. Biol. 1:123-134; Li and Baker, 2004, BMC Dev. Biol. 5). […] Using the Gal4ptc promoter, the influence of ectopic Ser expression on Notch activity was measured by examining how it affects the expression of CUT, a transcriptional target of Notch signals and is a classic indicator of Notch activity in the dorsal/ventral boundary and ventral region of the wing disc (Doherty et al., 1996, Genes Dev. 4:421-434).
Ser constructs were expressed in the third instar imaginal wing disc via the ptc promoter using the Gal4 system (Brand and Perrimon, 1993, Development 2:401-415). Notch activity was assessed by examination of CUT expression induced in response to Notch activity (Neumann and Cohen, 1996, Development 11:3477-3485). […]

T1 sequence (P07207 53-2703): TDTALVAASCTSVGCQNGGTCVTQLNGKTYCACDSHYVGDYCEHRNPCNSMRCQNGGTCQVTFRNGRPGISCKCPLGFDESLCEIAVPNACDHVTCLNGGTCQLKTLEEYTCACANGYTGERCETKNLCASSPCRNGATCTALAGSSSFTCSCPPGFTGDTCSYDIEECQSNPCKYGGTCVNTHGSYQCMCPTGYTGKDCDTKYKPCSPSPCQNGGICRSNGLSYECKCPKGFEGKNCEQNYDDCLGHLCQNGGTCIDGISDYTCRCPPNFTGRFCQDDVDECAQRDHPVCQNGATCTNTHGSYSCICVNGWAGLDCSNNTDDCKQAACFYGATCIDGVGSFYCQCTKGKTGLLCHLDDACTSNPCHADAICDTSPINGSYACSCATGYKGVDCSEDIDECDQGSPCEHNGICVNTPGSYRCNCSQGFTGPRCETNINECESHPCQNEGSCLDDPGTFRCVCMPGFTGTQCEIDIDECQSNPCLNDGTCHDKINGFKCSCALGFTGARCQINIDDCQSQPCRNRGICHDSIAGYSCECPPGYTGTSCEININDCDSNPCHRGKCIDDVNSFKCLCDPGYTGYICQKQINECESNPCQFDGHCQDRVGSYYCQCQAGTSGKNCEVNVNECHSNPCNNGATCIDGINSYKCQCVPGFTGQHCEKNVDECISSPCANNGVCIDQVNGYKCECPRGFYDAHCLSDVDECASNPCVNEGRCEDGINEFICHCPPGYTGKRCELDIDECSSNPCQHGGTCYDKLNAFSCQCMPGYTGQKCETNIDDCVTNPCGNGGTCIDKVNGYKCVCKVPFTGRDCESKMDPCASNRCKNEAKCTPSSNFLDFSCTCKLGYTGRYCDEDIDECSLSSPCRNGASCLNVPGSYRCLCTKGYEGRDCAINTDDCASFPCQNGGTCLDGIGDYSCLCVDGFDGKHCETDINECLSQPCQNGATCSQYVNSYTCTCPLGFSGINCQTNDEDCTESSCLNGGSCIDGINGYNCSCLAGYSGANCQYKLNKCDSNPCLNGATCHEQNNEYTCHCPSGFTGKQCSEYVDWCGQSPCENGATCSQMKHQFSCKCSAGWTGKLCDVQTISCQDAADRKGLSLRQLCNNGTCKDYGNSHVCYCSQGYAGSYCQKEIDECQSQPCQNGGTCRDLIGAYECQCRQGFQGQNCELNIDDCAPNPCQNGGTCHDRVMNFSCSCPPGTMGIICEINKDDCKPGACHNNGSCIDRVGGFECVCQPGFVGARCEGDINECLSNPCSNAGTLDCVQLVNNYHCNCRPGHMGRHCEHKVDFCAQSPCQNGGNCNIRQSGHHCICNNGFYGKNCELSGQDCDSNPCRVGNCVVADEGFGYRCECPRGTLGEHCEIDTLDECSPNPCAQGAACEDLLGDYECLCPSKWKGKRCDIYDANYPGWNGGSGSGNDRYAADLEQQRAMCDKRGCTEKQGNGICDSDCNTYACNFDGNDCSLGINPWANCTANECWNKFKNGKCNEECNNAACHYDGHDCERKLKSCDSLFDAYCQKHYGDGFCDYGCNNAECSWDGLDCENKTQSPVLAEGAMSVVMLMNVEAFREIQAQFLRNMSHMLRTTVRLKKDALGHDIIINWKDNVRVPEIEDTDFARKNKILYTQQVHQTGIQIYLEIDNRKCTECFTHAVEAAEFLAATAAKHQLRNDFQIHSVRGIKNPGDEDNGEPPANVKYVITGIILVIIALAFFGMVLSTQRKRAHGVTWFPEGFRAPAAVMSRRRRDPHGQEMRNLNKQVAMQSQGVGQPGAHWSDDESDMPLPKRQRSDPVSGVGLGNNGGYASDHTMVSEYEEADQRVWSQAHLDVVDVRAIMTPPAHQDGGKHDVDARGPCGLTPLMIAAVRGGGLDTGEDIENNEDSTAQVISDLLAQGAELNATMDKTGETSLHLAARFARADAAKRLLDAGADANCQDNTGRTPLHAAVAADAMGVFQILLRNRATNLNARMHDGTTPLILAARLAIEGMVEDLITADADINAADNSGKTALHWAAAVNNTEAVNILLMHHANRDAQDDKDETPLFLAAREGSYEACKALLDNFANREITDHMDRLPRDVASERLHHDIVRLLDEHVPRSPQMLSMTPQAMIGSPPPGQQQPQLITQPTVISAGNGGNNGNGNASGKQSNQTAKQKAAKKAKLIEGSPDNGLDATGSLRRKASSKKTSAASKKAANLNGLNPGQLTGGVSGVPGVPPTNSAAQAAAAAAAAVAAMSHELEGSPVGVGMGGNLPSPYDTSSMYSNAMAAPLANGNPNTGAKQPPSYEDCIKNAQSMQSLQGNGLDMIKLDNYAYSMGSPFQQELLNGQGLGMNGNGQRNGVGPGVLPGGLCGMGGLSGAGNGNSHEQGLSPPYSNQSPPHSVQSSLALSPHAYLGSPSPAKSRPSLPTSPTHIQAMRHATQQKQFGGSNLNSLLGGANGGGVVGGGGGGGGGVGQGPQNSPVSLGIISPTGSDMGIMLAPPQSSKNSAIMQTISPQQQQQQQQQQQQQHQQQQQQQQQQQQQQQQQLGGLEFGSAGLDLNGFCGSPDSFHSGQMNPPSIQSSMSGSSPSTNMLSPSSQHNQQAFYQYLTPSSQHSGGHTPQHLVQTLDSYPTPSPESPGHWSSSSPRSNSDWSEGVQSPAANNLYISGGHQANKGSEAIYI
T2 sequence (P07207 53-2703): as above

B1: tomato-tagged Ser (Sertom), wild type Drosophila Serrate (ligand)
chain: GNFELEILEISNTNSHLLNGYCCGMPAELRATKTIGCSPCTTAFRLCLKEYQTTEQGASISTGCSFGNATTKILGGSSFVLSDPGVGAIVLPFTFRWTKSFTLILQALDMYNTSYPDAERLIEETSYSGVILPSPEWKTLDHIGRNARITYRVRVQCAVTYYNTTCTTFCRPRDDQFGHYACGSEGQKLCLNGWQGVNCEEAICKAGCDPVHGKCDRPGECECRPGWRGPLCNECMVYPGCKHGSCNGSAWKCVCDTNWGGILCDQDLNFCGTHEPCKHGGTCENTAPDKYRCTCAEGLSGEQCEIVEHPCATRPCRNGGTCTLKTSNRTQAQVYRTSHGRSNMGRPVRRSSSMRSLDHLRPEGQALNGSSSSGLVSLGSLQLQQQLAPDFTCDCAAGWTGPTCEINIDECAGGPCEHGGTCIDLIGGFRCECPPEWHGDVCQVDVNECEAPHSAGIAANALLTTTATAIIGSNLSSTALLAALTSAVASTSLAIGPCINAKECRNQPGSFACICKEGWGGVTCAENLDDCVGQCRNGATCIDLVNDYRCACASGFTGRDCETDIDECATSPCRNGGECVDMVGKFNCICPLGYSGSLCEEAKENCTPSPCLEGHCLNTPEGYYCHCPPDRAGKHCEQLRPLCSQPPCNEGCFANVSLATSATTTTTTTTTATTTRKMAKPSGLPCSGHGSCEMSDVGTFCKCHVGHTGTFCEHNLNECSPNPCRNGGICLDGDGDFTCECMSGWTGKRCSERATGCYAGQCQNGGTCMPGAPDKALQPHCRCAPGWTGLFCAEAIDQCRGQPCHNGGTCESGAGWFRCVCAQGFSGPDCRINVNECSPQPCQGGATCIDGIGGYSCICPPGRHGLRCEILLSDPKSACQNASNTISPYTALNRSQNWLDIALTGRTEDDENCNACVCENGTSRCTNLWCGLPNCYKVDPLSKSSNLSGVCKQHEVCVPALSETCLSSPCNVRGDCRALEPSRRVAPPRLPAKSSCWPNQAVVNENCARLTILLALERVGKGASVEGLCSLVRVLLAAQLIKKPASTFGQDPGMLMVLCDLKTGTNDTVELTVSSSKLNDPQLPVAVGLLGELLSSRQLNGIQRRKELELQHAKLAALTSIVEVKLETARVADGSGHSLLIGVLCGVFIVLVGFSVFISLYWKQRLAYRTSSGMNLTPSLDALRHEEEKSNNLQNEENLRRYTNPLKGSTSSLRAATGMELSLNPAPELAASAASSSALHRSQPLFPPCDFERELDSSTGLKQAHKRSSQILLHKTQNSDMRKNTVGSLDSPRKDFGKRSINCKSMPPSSGDEGSDVLATTVMV
notes: The tomato tag is an internal insertion in the intracellular domain; also called Ser+Tomato; Ser Bsp tom; not shown: fluorescent tomato tag (Shaner et al., 2004), INSERTED within the intracellular domain at the Bsp EI site of the Ser cDN
Turning to B1, the binding result in experiment [1] is on record as “binds”.

B2: wild type Drosophila Serrate (Ser), UAS-Ser transgene (ligand)
chain: GNFELEILEISNTNSHLLNGYCCGMPAELRATKTIGCSPCTTAFRLCLKEYQTTEQGASISTGCSFGNATTKILGGSSFVLSDPGVGAIVLPFTFRWTKSFTLILQALDMYNTSYPDAERLIEETSYSGVILPSPEWKTLDHIGRNARITYRVRVQCAVTYYNTTCTTFCRPRDDQFGHYACGSEGQKLCLNGWQGVNCEEAICKAGCDPVHGKCDRPGECECRPGWRGPLCNECMVYPGCKHGSCNGSAWKCVCDTNWGGILCDQDLNFCGTHEPCKHGGTCENTAPDKYRCTCAEGLSGEQCEIVEHPCATRPCRNGGTCTLKTSNRTQAQVYRTSHGRSNMGRPVRRSSSMRSLDHLRPEGQALNGSSSSGLVSLGSLQLQQQLAPDFTCDCAAGWTGPTCEINIDECAGGPCEHGGTCIDLIGGFRCECPPEWHGDVCQVDVNECEAPHSAGIAANALLTTTATAIIGSNLSSTALLAALTSAVASTSLAIGPCINAKECRNQPGSFACICKEGWGGVTCAENLDDCVGQCRNGATCIDLVNDYRCACASGFTGRDCETDIDECATSPCRNGGECVDMVGKFNCICPLGYSGSLCEEAKENCTPSPCLEGHCLNTPEGYYCHCPPDRAGKHCEQLRPLCSQPPCNEGCFANVSLATSATTTTTTTTTATTTRKMAKPSGLPCSGHGSCEMSDVGTFCKCHVGHTGTFCEHNLNECSPNPCRNGGICLDGDGDFTCECMSGWTGKRCSERATGCYAGQCQNGGTCMPGAPDKALQPHCRCAPGWTGLFCAEAIDQCRGQPCHNGGTCESGAGWFRCVCAQGFSGPDCRINVNECSPQPCQGGATCIDGIGGYSCICPPGRHGLRCEILLSDPKSACQNASNTISPYTALNRSQNWLDIALTGRTEDDENCNACVCENGTSRCTNLWCGLPNCYKVDPLSKSSNLSGVCKQHEVCVPALSETCLSSPCNVRGDCRALEPSRRVAPPRLPAKSSCWPNQAVVNENCARLTILLALERVGKGASVEGLCSLVRVLLAAQLIKKPASTFGQDPGMLMVLCDLKTGTNDTVELTVSSSKLNDPQLPVAVGLLGELLSSRQLNGIQRRKELELQHAKLAALTSIVEVKLETARVADGSGHSLLIGVLCGVFIVLVGFSVFISLYWKQRLAYRTSSGMNLTPSLDALRHEEEKSNNLQNEENLRRYTNPLKGSTSSLRAATGMELSLNPAPELAASAASSSALHRSQPLFPPCDFERELDSSTGLKQAHKRSSQILLHKTQNSDMRKNTVGSLDSPRKDFGKRSINCKSMPPSSGDEGSDVLATTVMV
notes: also called wild type Ser
As for B2, in experiment [2], the binding result was “binds”.
